Several values for one entry are separate records, joined by “and”; a condition that tells them apart may be missing. Identical values can stand only once. Like-named read-outs stand apart in the source and are kept apart here.
What was measured:
[1] = molecular target: recombinant secreted NS1 (sNS1) of DENV2 clinical strain PVP94/07 with C-terminal His6-tag (dengue virus 2 (clinical strain PVP94/07)); assay: cross-linking
[2] = molecular target: recombinant secreted NS1 (sNS1) of DENV2 clinical strain PVP94/07 with C-terminal His6-tag (dengue virus 2 (clinical strain PVP94/07)); assay: cryo-EM structure; recombinant sNS1 complexed with Fab 5E3, molar ratio 1:1.2, final sNS1 0.25 mg/mL
[3] = molecular target: recombinant secreted NS1 (sNS1) of DENV2 clinical strain PVP94/07 with C-terminal His6-tag (dengue virus 2 (clinical strain PVP94/07)); assay: AUC; sedimentation velocity, 72,446 x g, 20 °C, 1 mg/ml protein in NTE buffer, SEDFIT continuous c(s) distribution
[4] = molecular target: recombinant secreted NS1 (sNS1) of DENV2 clinical strain PVP94/07 with C-terminal His6-tag (dengue virus 2 (clinical strain PVP94/07)); assay: cryo-EM structure; recombinant sNS1 alone, 0.25 mg/mL; 2D and 3D classification (Relion, CryoSPARC); also imaged with 0.05% DDM
[5] = molecular target: sNS1 from the supernatant of DENV2 PVP94/07 infected cells (dengue virus 2 (clinical strain PVP94/07)); assay: cross-linking
[6] = molecular target: sNS1 from the supernatant of DENV2 PVP94/07 infected cells (dengue virus 2 (clinical strain PVP94/07)); assay: cross-linking; remark: listed apart in the source

Substance	stoichiometry N [1]	stoichiometry N [2]	stoichiometry N [3]	stoichiometry N [4]	stoichiometry N [5]	stoichiometry N [6]
recombinant secreted NS1 (sNS1) of DENV2 clinical strain PVP94/07 with C-terminal His6-tag (natural protein)	6 and 4 and 2	2 and 4	4 and 6	6 and 4		
sNS1 from the supernatant of DENV2 PVP94/07 infected cells (natural protein)					4 and 2	6

Source: publication PMC9643530
